One may read the Kd as the constant that tells how readily two partners part at equilibrium. In general, koff refers to the rate constant with which the complex falls apart. The low end stands for a long-lived complex, the high end for a short-lived complex. In general, kon refers to the second-order rate constant of association. High values mean fast association, low ones slow association.

Results on three molecules are retold here after patent US20220119534A1 (DRAGONFLY THERAPEUTICS, published 2022).

The target of test [1] is T1, Human CLEC12A-His (human, UniProt Q5QGZ9 65-265).
T1 construct: Recombinant soluble protein made in house (Dragonfly Tx); The hCLEC12A spot of the HuProt array is written under this molecule as well; also called hCLEC12A-His; hCLEC12A; not shown: His tag
T1 sequence: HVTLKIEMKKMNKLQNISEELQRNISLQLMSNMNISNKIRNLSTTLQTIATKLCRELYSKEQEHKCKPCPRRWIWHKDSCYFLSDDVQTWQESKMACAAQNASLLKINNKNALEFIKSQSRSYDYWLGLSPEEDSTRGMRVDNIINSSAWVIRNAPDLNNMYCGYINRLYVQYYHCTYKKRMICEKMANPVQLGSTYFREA
Put plainly: SPR Biacore 8K 37 C; TriNKET captured on anti-hFc chip, hCLEC12A-His as analyte; 1:1 fit; after 2 wks 40 C at pH 5.0, n=2. For orientation: Surface plasmon resonance follows binding to a sensor surface in real time, without labels.

In test [2] the target is T2, Human CD16a V158 (FcγRIIIa V158) (human, UniProt P08637 17-208, biotinylated (site not stated)).
T2 construct: V158 is the allele name in mature numbering; also called hCD16aV; hCD16a V158
T2 sequence (P08637 17-208 F176V limits assumed): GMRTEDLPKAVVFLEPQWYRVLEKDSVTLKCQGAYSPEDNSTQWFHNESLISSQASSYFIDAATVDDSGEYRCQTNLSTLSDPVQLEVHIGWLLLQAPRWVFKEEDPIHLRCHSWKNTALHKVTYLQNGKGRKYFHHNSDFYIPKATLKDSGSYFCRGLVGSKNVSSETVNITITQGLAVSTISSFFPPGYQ
Put plainly: SPR; biotinylated CD16a V158 captured on SA chip, TriNKET as analyte; 1:1 kinetic fit; control sample, n=3.

The target of test [3] is T3, mFc-hNKG2D (human, UniProt P26718 73-216).
T3 construct: extracellular domain; Made in house (Dragonfly Tx); the order of tag and ECD follows the name mFc-hNKG2D; also called mFc-tagged human NKG2D; not shown: mouse Fc tag
T3 sequence (looked up): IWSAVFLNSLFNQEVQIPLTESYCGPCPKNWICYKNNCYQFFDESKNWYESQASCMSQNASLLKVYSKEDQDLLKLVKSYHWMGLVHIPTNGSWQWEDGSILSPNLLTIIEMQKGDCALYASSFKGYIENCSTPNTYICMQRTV
Put plainly: SPR Biacore 8K 37 C; mFc-hNKG2D captured on anti-mFc chip, TriNKET as analyte; 1:1 kinetic fit; after 2 wks 40 C at pH 8.0.

Test [4] has as its target T1, Human CLEC12A-His. In words: SPR Biacore 8K 37 C; TriNKET captured on anti-hFc chip, hCLEC12A-His as analyte; 1:1 fit; un-oxidized control, n=2.
Description: Briefly, human Fc specific antibodies were covalently immobilized at a density ˜8000-10000 resonance units (RU) on carboxy methyl dextran matrix of a CM5 biosensor chip via amine-coupling chemistry to create an anti-hFc IgG chip. […] Association was monitored for 300 seconds and dissociation was monitored for 600 seconds. Surfaces were regenerated between cycles with three pulses of 10 mM glycine-HCl, pH 1.7 injected for 20 seconds at 100 μL/min. HBS-EP+ (1×) with 0.1 mg/mL BSA buffer was used throughout the experiment. Data were analyzed using Biacore 8K Insight evaluation software (GE Healthcare). The kinetic rate constants and overall affinity were obtained using 1:1 kinetic fit binding model (FIGS. 71A-71B).
Test [5] addresses T3, mFc-hNKG2D. In words: SPR Biacore 8K 37 C; mFc-hNKG2D captured on anti-mFc chip, TriNKET as analyte; 1:1 kinetic fit; after 4 wks 40 C in CST pH 7.0, n=3.
Description: Association was monitored for 60 seconds and dissociation was monitored for 60 seconds. Surfaces were regenerated between cycles with three pulses of 10 mM glycine-HCl, pH 1.7 injected for 20 seconds at 100 μL/min. HBS-EP+ (1×) buffer was used throughout the experiment. Data were analyzed using Biacore 8K Insight evaluation software (GE Healthcare).
Test [6] addresses T1, Human CLEC12A-His. In words: cell-based or functional assay.
The target in test [7] is T4, Human CD32b (human, UniProt P31994 46-217, limits assumed, biotinylated).
T4 construct: Bought recombinant receptor; also called hFcγRIIb
T4 sequence (looked up): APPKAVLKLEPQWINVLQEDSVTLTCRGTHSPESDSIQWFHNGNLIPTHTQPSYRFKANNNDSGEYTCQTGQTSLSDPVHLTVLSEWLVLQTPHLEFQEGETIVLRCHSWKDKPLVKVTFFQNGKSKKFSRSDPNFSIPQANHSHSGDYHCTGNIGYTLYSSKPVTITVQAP
In words: SPR, steady state fit; average for AB0192.

In test [8] the target is T5, mFc-hNKG2D (human, UniProt P26718 73-216).
T5 construct: extracellular domain; Recombinant mFc-tagged NKG2D dimer, made in house; also called human NKG2D; not shown: mouse Fc tag
T5 sequence (looked up): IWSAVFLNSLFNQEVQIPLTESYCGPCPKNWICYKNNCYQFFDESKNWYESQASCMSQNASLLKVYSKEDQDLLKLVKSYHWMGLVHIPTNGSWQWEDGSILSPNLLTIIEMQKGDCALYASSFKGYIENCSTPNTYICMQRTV
Put plainly: SPR; control sample (low pH hold study).

Test [9] deals with T6, recombinant human CD16b (human, UniProt O75015 17-200, limits assumed, biotinylated).
T6 construct: also called FcγRIIIb
T6 sequence (O75015 17-200 limits assumed): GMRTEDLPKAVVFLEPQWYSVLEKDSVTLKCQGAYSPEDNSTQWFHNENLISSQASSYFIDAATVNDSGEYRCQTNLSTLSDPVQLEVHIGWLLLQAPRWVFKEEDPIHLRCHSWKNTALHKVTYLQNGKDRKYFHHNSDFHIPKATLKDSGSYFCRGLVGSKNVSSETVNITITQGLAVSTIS
In words: SPR 25C, steady state.

Several values for one entry are separate records, joined by “and”; a condition that tells them apart may be missing. Equal entries are not always repeated.

B1: F3'-1602 TriNKET (bispecific antibody, human IgG1, kappa)
chain: QLQLQESGPGLVKPSETLSLTCTVSGFSLTNYGLHWIRQPPGKCLEWIGVIWSGGKTDYNPSLKSRVTISKDTSKNQFSLKLSSVQAADTAVYYCAKYDYDDSLDYWGQGTLVTVSSGGGGSGGGGSGGGGSGGGGSDIQMTQSPSSLSASVGDRVTITCHASQNINFWLSWYQQKPGKAPKLLIYEASNLHTGVPSRFSGSGSGTRFTLTISSLQPEDIATYYCQQSHSYPLTFGCGTKLEIKGSDKTHTCPPCPAPELLGGPSVFLFPPKPKDTLMISRTPEVTCVVVDVSHEDPEVKFNWYVDGVEVHNAKTKPREEQYNSTYRVVSVLTVLHQDWLNGKEYKCKVSNKALPAPIEKTISKAKGQPREPRVYTLPPCRDELTKNQVSLTCLVKGFYPSDIAVEWESNGQPENNYKTTPPVLVSDGSFTLYSKLTVDKSRWQQGNVFSCSVMHEALHNHYTQKSLSLSPG
heavy: EVQLVESGGGLVKPGGSLRLSCAASGFTFSSYSMNWVRQAPGKGLEWVSSISSSSSYIYYADSVKGRFTISRDNAKNSLYLQMNSLRAEDTAVYYCARGAPIGAAAGWFDPWGQGTLVTVSSASTKGPSVFPLAPSSKSTSGGTAALGCLVKDYFPEPVTVSWNSGALTSGVHTFPAVLQSSGLYSLSSVVTVPSSSLGTQTYICNVNHKPSNTKVDKKVEPKSCDKTHTCPPCPAPELLGGPSVFLFPPKPKDTLMISRTPEVTCVVVDVSHEDPEVKFNWYVDGVEVHNAKTKPREEQYNSTYRVVSVLTVLHQDWLNGKEYKCKVSNKALPAPIEKTISKAKGQPREPQVCTLPPSRDELTENQVSLTCLVKGFYPSDIAVEWESNGQPENNYKTTPPVLDSDGSFFLYSWLTVDKSRWQQGNVFSCSVMHEALHNHYTQKSLSLSPG
light: DIQMTQSPSSVSASVGDRVTITCRASQGISSWLAWYQQKPGKAPKLLIYAASSLQSGVPSRFSGSGSGTDFTLTISSLQPEDFATYYCQQGVSFPRTFGGGTKVEIKRTVAAPSVFIFPPSDEQLKSGTASVVCLLNNFYPREAKVQWKVDNALQSGNSQESVTEQDSKDSTYSLSSTLTLSKADYEKHKVYACEVTHQGLSSPVTKSFNRGEC
notes: Trispecific F3' format: CLEC12A scFv-Fc paired with NKG2D Fab-Fc; Stressed and control samples of the stability studies are the same molecule; also called AB0237
Turning to B1, the Kd in [1] was found to be 1.01 nM; in test [2] it was 212 nM; in test [3] it was 905 nM; in [4], 1.1 nM; in test [5], 708 nM. The koff in test [1] came to 0.000871 s⁻¹; in [2], 0.024 s⁻¹; in test [3], 0.122 s⁻¹; in test [4] it was 0.000858 s⁻¹; in [5] it was 0.14 s⁻¹. For the same molecule, the kon in test [1] was 865000 M⁻¹ s⁻¹; in test [2] it was 113000 M⁻¹ s⁻¹; in [3] it was 135000 M⁻¹ s⁻¹; in test [4], 799000 M⁻¹ s⁻¹; in test [5], 198000 M⁻¹ s⁻¹. The “EC50 (nM), KHYG-1-CD16aV cytotoxicity assay, PL-21 cells” value in [6] is 0.12 nM.

B2: AB0192 TriNKET (other)
chain: EVQLVESGGGVVQPGGSLRLSCAASGFTFNAFGMHWVRQAPGKCLEWVAFISSGSTSIYYANTVKGRFTISRDNSKNTLYLQMNSLRAEDTAVYYCARDGYPTGGAMDYWGQGTSVTVSSGGGGSGGGGSGGGGSGGGGSDIQMTQSPSSLSASVGDRVTITCKASQDIYNYLSWFQQKPGKAPKPLIYRANILVSGVPSRFSGSGSGQDYTFTISSLQPEDIATYYCLQFDAFPFTFGCGTKLEIKGSDKTHTCPPCPAPELLGGPSVFLFPPKPKDTLMISRTPEVTCVVVDVSHEDPEVKFNWYVDGVEVHNAKTKPREEQYNSTYRVVSVLTVLHQDWLNGKEYKCKVSNKALPAPIEKTISKAKGQPREPRVYTLPPCRDELTKNQVSLTCLVKGFYPSDIAVEWESNGQPENNYKTTPPVLVSDGSFTLYSKLTVDKSRWQQGNVFSCSVMHEALHNHYTQKSLSLSPG
heavy: EVQLVESGGGLVKPGGSLRLSCAASGFTFSSYSMNWVRQAPGKGLEWVSSISSSSSYIYYADSVKGRFTISRDNAKNSLYLQMNSLRAEDTAVYYCARGAPIGAAAGWFDPWGQGTLVTVSSASTKGPSVFPLAPSSKSTSGGTAALGCLVKDYFPEPVTVSWNSGALTSGVHTFPAVLQSSGLYSLSSVVTVPSSSLGTQTYICNVNHKPSNTKVDKKVEPKSCDKTHTCPPCPAPELLGGPSVFLFPPKPKDTLMISRTPEVTCVVVDVSHEDPEVKFNWYVDGVEVHNAKTKPREEQYNSTYRVVSVLTVLHQDWLNGKEYKCKVSNKALPAPIEKTISKAKGQPREPQVCTLPPSRDELTENQVSLTCLVKGFYPSDIAVEWESNGQPENNYKTTPPVLDSDGSFFLYSWLTVDKSRWQQGNVFSCSVMHEALHNHYTQKSLSLSPG
light: DIQMTQSPSSVSASVGDRVTITCRASQGISSWLAWYQQKPGKAPKLLIYAASSLQSGVPSRFSGSGSGTDFTLTISSLQPEDFATYYCQQGVSFPRTFGGGTKVEIKRTVAAPSVFIFPPSDEQLKSGTASVVCLLNNFYPREAKVQWKVDNALQSGNSQESVTEQDSKDSTYSLSSTLTLSKADYEKHKVYACEVTHQGLSSPVTKSFNRGEC
notes: the condition stands under assay; also called AB0192 Lot AB0192-005
With B2, in [7], the affinity, expressed as Kd, was 6100 nM. Also, in test [8], the Kd was determined as 779 nM, the koff turned out to be 0.146 s⁻¹ and the kon was determined as 188000 M⁻¹ s⁻¹.

B3: F3'-1602 TriNKET (other)
chain: QLQLQESGPGLVKPSETLSLTCTVSGFSLTNYGLHWIRQPPGKCLEWIGVIWSGGKTDYNPSLKSRVTISKDTSKNQFSLKLSSVQAADTAVYYCAKYDYDDSLDYWGQGTLVTVSSGGGGSGGGGSGGGGSGGGGSDIQMTQSPSSLSASVGDRVTITCHASQNINFWLSWYQQKPGKAPKLLIYEASNLHTGVPSRFSGSGSGTRFTLTISSLQPEDIATYYCQQSHSYPLTFGCGTKLEIKGSDKTHTCPPCPAPELLGGPSVFLFPPKPKDTLMISRTPEVTCVVVDVSHEDPEVKFNWYVDGVEVHNAKTKPREEQYNSTYRVVSVLTVLHQDWLNGKEYKCKVSNKALPAPIEKTISKAKGQPREPRVYTLPPCRDELTKNQVSLTCLVKGFYPSDIAVEWESNGQPENNYKTTPPVLVSDGSFTLYSKLTVDKSRWQQGNVFSCSVMHEALHNHYTQKSLSLSPG
heavy: EVQLVESGGGLVKPGGSLRLSCAASGFTFSSYSMNWVRQAPGKGLEWVSSISSSSSYIYYADSVKGRFTISRDNAKNSLYLQMNSLRAEDTAVYYCARGAPIGAAAGWFDPWGQGTLVTVSSASTKGPSVFPLAPSSKSTSGGTAALGCLVKDYFPEPVTVSWNSGALTSGVHTFPAVLQSSGLYSLSSVVTVPSSSLGTQTYICNVNHKPSNTKVDKKVEPKSCDKTHTCPPCPAPELLGGPSVFLFPPKPKDTLMISRTPEVTCVVVDVSHEDPEVKFNWYVDGVEVHNAKTKPREEQYNSTYRVVSVLTVLHQDWLNGKEYKCKVSNKALPAPIEKTISKAKGQPREPQVCTLPPSRDELTENQVSLTCLVKGFYPSDIAVEWESNGQPENNYKTTPPVLDSDGSFFLYSWLTVDKSRWQQGNVFSCSVMHEALHNHYTQKSLSLSPG
light: DIQMTQSPSSVSASVGDRVTITCRASQGISSWLAWYQQKPGKAPKLLIYAASSLQSGVPSRFSGSGSGTDFTLTISSLQPEDFATYYCQQGVSFPRTFGGGTKVEIKRTVAAPSVFIFPPSDEQLKSGTASVVCLLNNFYPREAKVQWKVDNALQSGNSQESVTEQDSKDSTYSLSSTLTLSKADYEKHKVYACEVTHQGLSSPVTKSFNRGEC
notes: CLEC12A scFv-Fc, NKG2D A49MI Fab-Fc, human IgG1 Fc; also called AB0237
As for B3, in [9], the Kd is 7600 nM and 7200 nM and 8600 nM and 6500 nM.
